The values that follow come from patent EP4707292A2 (The University of North Carolina at Chapel Hill, dated 2026).

For test [1], the target named is T1, Adeno-associated virus 9 (AAV9) virion (adeno-associated virus 9).
T1 construct: Intact virion; capsid of VP1, VP2, VP3; also called AAV9/luc; AAV9 capsid
In words: co-IP with ADK9/LC-MS/MS, AAV9 + human serum vs control.

Test [2] deals with T2, Adeno-associated virus 8 (AAV8) virion (adeno-associated virus 8).
T2 construct: Intact virion with packaged vector genome; capsid of 60 subunits (VP1, VP2, VP3, overlapping products of one cap gene); also called AAV8/luc; AAV8 capsid
Nature of the test: co-IP/LC-MS/MS, AAV8 + human serum vs PBS control.

B1: Ig gamma-2 chain C region (other)
chain: ASTKGPSVFPLAPCSRSTSESTAALGCLVKDYFPEPVTVSWNSGALTSGVHTFPAVLQSSGLYSLSSVVTVPSSNFGTQTYTCNVDHKPSNTKVDKTVERKCCVECPPCPAPPVAGPSVFLFPPKPKDTLMISRTPEVTCVVVDVSHEDPEVQFNWYVDGVEVHNAKTKPREEQFNSTFRVVSVLTVVHQDWLNGKEYKCKVSNKGLPAPIEKTISKTKGQPREPQVYTLPPSREEMTKNQVSLTCLVKGFYPSDISVEWESNGQPENNYKTTPPMLDSDGSFFLYSKLTVDKSRWQQGNVFSCSVMHEALHNHYTQKSLSLSPGK
notes: also called IGHG2
Turning to B1, the “fold change” value in test [1] and in test [2] was 5.06 fold throughout.

B2: Beta-2-glycoprotein 1 (other)
chain: GRTCPKPDDLPFSTVVPLKTFYEPGEEITYSCKPGYVSRGGMRKFICPLTGLWPINTLKCTPRVCPFAGILENGAVRYTTFEYPNTISFSCNTGFYLNGADSAKCTEEGKWSPELPVCAPIICPPPSIPTFATLRVYKPSAGNNSLYRDTAVFECLPQHAMFGNDTITCTTHGNWTKLPECREVKCPFPSRPDNGFVNYPAKPTLYYKDKATFGCHDGYSLDGPEEIECTKLGNWSAMPSCKASCKVPVKKATVVYQGERVKIQEKFKNGMLHGDKVSFFCKNKEKKCSYTEDAQCIDGTIEVPKCFKEHSSLAFWKTDASDVKPC
notes: also called APOH
B2: the “fold change” value in test [1] and in test [2] was 3.43 fold in each case.

B3: Protein fem-1 homolog A (other)
chain: MDLRTAVYNAARDGKLQLLQKLLSGRSREELDELTGEVAGGGTPLLIAARYGHLDVVEYLVDRCGASVEAGGSVHFDGETIEGAPPLWAASAAGHLDVVRSLLRRGASVNRTTRTNSTPLRAACFDGHLEVVRYLVGEHQADLEVANRHGHTCLMISCYKGHREIARYLLEQGAQVNRRSAKGNTALHDCAESGSLEILQLLLGCKARMERDGYGMTPLLAASVTGHTNIVEYLIQEQPGQEQVAGGEAQPGLPQEDPSTSQGCAQPQGAPCCSSSPEEPLNGESYESCCPTSREAAVEALELLGATYVDKKRDLLGALKHWRRAMELRHQGGEYLPKPEPPQLVLAYDYSREVNTTEELEALITDPDEMRMQALLIRERILGPSHPDTSYYIRYRGAVYADSGNFERCIRLWKYALDMQQSNLEPLSPMTASSFLSFAELFSYVLQDRAAKGSLGTQIGFADLMGVLTKGVREVERALQLPREPGDSAQFTKALAIILHLLYLLEKVECTPSQEHLKHQTVYRLLKCAPRGKNGFTPLHMAVDKDTTNVGRYPVGRFPSLHVVKVLLDCGADPDSRDFDNNTPLHIAAQNNCPAIMNALIEAGAHMDATNAFKKTAYELLDEKLLARGTMQPFNYVTLQCLAARALDKNKIPYKGFIPEDLEAFIELH
notes: also called FEM1A
Consider B3, for which the “fold change” value in test [1] and in test [2] was 0.264 fold in each case.

B4: Isoform 2 of Ig mu chain C region (other)
chain: GSASAPTLFPLVSCENSPSDTSSVAVGCLAQDFLPDSITFSWKYKNNSDISSTRGFPSVLRGGKYAATSQVLLPSKDVMQGTDEHVVCKVQHPNGNKEKNVPLPVIAELPPKVSVFVPPRDGFFGNPRKSKLICQATGFSPRQIQVSWLREGKQVGSGVTTDQVQAEAKESGPTTYKVTSTLTIKESDWLGQSMFTCRVDHRGLTFQQNASSMCVPDQDTAIRVFAIPPSFASIFLTKSTKLTCLVTDLTTYDSVTISWTRQNGEAVKTHTNISESHPNATFSAVGEASICEDDWNSGERFTCTVTHTDLPSPLKQTISRPKGVALHRPDVYLLPPAREQLNLRESATITCLVTGFSPADVFVQWMQRGQPLSPEKYVTSAPMPEPQAPGRYFAHSILTVSEEEWNTGETYTCVVAHEALPNRVTERTVDKSTEGEVSADEEGFENLWATASTFIVLFLLSLFYSTTVTLFKVK
notes: also called IGHM
In the case of B4, the “fold change” value in test [1] and in test [2] was 3 fold each time.

B5: Apolipoprotein C-I (other)
chain: TPDVSSALDKLKEFGNTLEDKARELISRIKQSELSAKMREWFSETFQKVKEKLKIDS
notes: also called APOC1
As for B5, the “fold change” value in test [1] and in test [2] was 2 fold throughout.

B6: Kininogen-1 (other)
chain: QESQSEEIDCNDKDLFKAVDAALKKYNSQNQSNNQFVLYRITEATKTVGSDTFYSFKYEIKEGDCPVQSGKTWQDCEYKDAAKAATGECTATVGKRSSTKFSVATQTCQITPAEGPVVTAQYDCLGCVHPISTQSPDLEPILRHGIQYFNNNTQHSSLFMLNEVKRAQRQVVAGLNFRITYSIVQTNCSKENFLFLTPDCKSLWNGDTGECTDNAYIDIQLRIASFSQNCDIYPGKDFVQPPTKICVGCPRDIPTNSPELEETLTHTITKLNAENNATFYFKIDNVKKARVQVVAGKKYFIDFVARETTCSKESNEELTESCETKKLGQSLDCNAEVYVVPWEKKIYPTVNCQPLGMISLMKRPPGFSPFRSSRIGEIKEETTVSPPHTSMAPAQDEERDSGKEQGHTRRHDWGHEKQRKHNLGHGHKHERDQGHGHQRGHGLGHGHEQQHGLGHGHKFKLDDDLEHQGGHVLDHGHKHKHGHGHGKHKNKGKKNGKHNGWKTEHLASSSEDSTTPSAQTQEKTEGPTPIPSLAKPGVTVTFSDFQDSDLIATMMPPISPAPIQSDDDWIPDIQIDPNGLSFNPISDFPDTTSPKCPGRPWKSVSEINPTTQMKESYYFDLTDGLS
notes: also called KNG1
On to B6, for which the “fold change” value in test [1] and in test [2] was 0.419 fold each time.

B7: Isoform 2 of Haptoglobin-related protein (other)
chain: MHVCVCVCVCVYMPVCVDACMCCEAGRPAFRSFLFSLCSDLGAVISLLLWGRQLFALYSGNDVTDISDDRFPKPPEIANGYVEHLFRYQCKNYYRLRTEGDGVYTLNDKKQWINKAVGDKLPECEAVCGKPKNPANPVQRILGGHLDAKGSFPWQAKMVSHHNLTTGATLINEQWLLTTAKNLFLNHSENATAKDIAPTLTLYVGKKQLVEIEKVVLHPNYHQVDIGLIKLKQKVLVNERVMPICLPSKNYAEVGRVGYVSGWGQSDNFKLTDHLKYVMLPVADQYDCITHYEGSTCPKWKAPKSPVGVQPILNEHTFCVGMSKYQEDTCYGDAGSAFAVHDLEEDTWYAAGILSFDKSCAVAEYGVYVKVTSIQHWVQKTIAEN
notes: also called HPR
Regarding B7, the “fold change” value in test [1] and in test [2] was 2.82 fold in each case.

B8: Glutathione peroxidase 3 (enzyme)
chain: QSRGQEKSKMDCHGGISGTIYEYGALTIDGEEYIPFKQYAGKYVLFVNVASYUGLTGQYIELNALQEELAPFGLVILGFPCNQFGKQEPGENSEILPTLKYVRPGGGFVPNFQLFEKGDVNGEKEQKFYTFLKNSCPPTSELLGTSDRLFWEPMKVHDIRWNFEKFLVGPDGIPIMRWHHRTTVSNVKMDILSYMRRQAALGVKRK
notes: also called GPX3
As to B8, the “fold change” value in test [1] and in test [2] was 2.74 fold each time.

B9: Hemopexin (other)
chain: TPLPPTSAHGNVAEGETKPDPDVTERCSDGWSFDATTLDDNGTMLFFKGEFVWKSHKWDRELISERWKNFPSPVDAAFRQGHNSVFLIKGDKVWVYPPEKKEKGYPKLLQDEFPGIPSPLDAAVECHRGECQAEGVLFFQGDREWFWDLATGTMKERSWPAVGNCSSALRWLGRYYCFQGNQFLRFDPVRGEVPPRYPRDVRDYFMPCPGRGHGHRNGTGHGNSTHHGPEYMRCSPHLVLSALTSDNHGATYAFSGTHYWRLDTSRDGWHSWPIAHQWPQGPSAVDAAFSWEEKLYLVQGTQVYVFLTKGGYTLVSGYPKRLEKEVGTPHGIILDSVDAAFICPGSSRLHIMAGRRLWWLDLKSGAQATWTELPWPHEKVDGALCMEKSLGPNSCSANGPGLYLIHGPNLYCYSDVEKLNAAKALPQPQNVTSLLGCTH
notes: also called HPX
For B9, the “fold change” value in test [1] and in test [2] was 30.7 fold in each case.

B10: Ig gamma-3 chain C region (other)
chain: ASTKGPSVFPLAPCSRSTSGGTAALGCLVKDYFPEPVTVSWNSGALTSGVHTFPAVLQSSGLYSLSSVVTVPSSSLGTQTYTCNVNHKPSNTKVDKRVELKTPLGDTTHTCPRCPEPKSCDTPPPCPRCPEPKSCDTPPPCPRCPEPKSCDTPPPCPRCPAPELLGGPSVFLFPPKPKDTLMISRTPEVTCVVVDVSHEDPEVQFKWYVDGVEVHNAKTKPREEQYNSTFRVVSVLTVLHQDWLNGKEYKCKVSNKALPAPIEKTISKTKGQPREPQVYTLPPSREEMTKNQVSLTCLVKGFYPSDIAVEWESSGQPENNYNTTPPMLDSDGSFFLYSKLTVDKSRWQQGNIFSCSVMHEALHNRFTQKSLSLSPGK
notes: also called IGHG3
B10: the “fold change” value in test [1] and in test [2] was 6.33 fold each time.

B11: CD5 antigen-like (other)
chain: SPSGVRLVGGLHRCEGRVEVEQKGQWGTVCDDGWDIKDVAVLCRELGCGAASGTPSGILYEPPAEKEQKVLIQSVSCTGTEDTLAQCEQEEVYDCSHDEDAGASCENPESSFSPVPEGVRLADGPGHCKGRVEVKHQNQWYTVCQTGWSLRAAKVVCRQLGCGRAVLTQKRCNKHAYGRKPIWLSQMSCSGREATLQDCPSGPWGKNTCNHDEDTWVECEDPFDLRLVGGDNLCSGRLEVLHKGVWGSVCDDNWGEKEDQVVCKQLGCGKSLSPSFRDRKCYGPGVGRIWLDNVRCSGEEQSLEQCQHRFWGFHDCTHQEDVAVICSG
notes: also called CD5L
For the molecule B11, the “fold change” value in test [1] and in test [2] was 1.23 fold throughout.

B12: C4b-binding protein alpha chain (other)
chain: NCGPPPTLSFAAPMDITLTETRFKTGTTLKYTCLPGYVRSHSTQTLTCNSDGEWVYNTFCIYKRCRHPGELRNGQVEIKTDLSFGSQIEFSCSEGFFLIGSTTSRCEVQDRGVGWSHPLPQCEIVKCKPPPDIRNGRHSGEENFYAYGFSVTYSCDPRFSLLGHASISCTVENETIGVWRPSPPTCEKITCRKPDVSHGEMVSGFGPIYNYKDTIVFKCQKGFVLRGSSVIHCDADSKWNPSPPACEPNSCINLPDIPHASWETYPRPTKEDVYVVGTVLRYRCHPGYKPTTDEPTTVICQKNLRWTPYQGCEALCCPEPKLNNGEITQHRKSRPANHCVYFYGDEISFSCHETSRFSAICQGDGTWSPRTPSCGDICNFPPKIAHGHYKQSSSYSFFKEEIIYECDKGYILVGQAKLSCSYSHWSAPAPQCKALCRKPELVNGRLSVDKDQYVEPENVTIQCDSGYGVVGPQSITCSGNRTWYPEVPKCEWETPEGCEQVLTGKRLMQCLPNPEDVKMALEVYKLSLEIEQLELQRDSARQSTLDKEL
notes: also called C4BPA
For B12, the “fold change” value in test [1] and in test [2] was 1.53 fold each time.
